Data published in paper PMC11740425.

Columns and labels:
[1] = biological target: TCR1 with the T30Q mutation in CDR-1A (human | mouse)
[2] = biological target: TCR1 with the T30Q mutation in CDR-1A (human | mouse); test: flow cytometry on cells

- EC50 (functional avidity) of TCR Jurkat cells for KRAS^G12D peptide [1]: 53 nM
- pMut-HLA binding positivity rate [2]: 60%
Substance: KRAS^G12D peptide presented by HLA-A*11:01 (KRAS^G12D tetramer) (from UniProt P61769 21-119; P01116 7-16) (peptide-MHC)
